Experiments:
[1] = molecular target: Dimeric HER2 binding IgA2m(2) produced in N. benthamiana ΔXT/FT (human) (UniProt P01591); assay: SPR; Biacore T200; IgA variants immobilized on a Protein L sensor chip; five increasing concentrations of FcαRI injected in single-cycle kinetic experiments; 1:1 binding model; three independent kinetic runs
[2] = molecular target: Dimeric HER2 binding IgA1 produced in N. benthamiana ΔXT/FT (human) (UniProt P01591); assay: as above
[3] = molecular target: Dimeric HER2 binding IgA2m(2) produced in HEK293F cells (human) (UniProt P01591); assay: as above
[4] = molecular target: Dimeric HER2 binding IgA1 produced in HEK293F cells (human) (UniProt P01591); assay: as above
[5] = molecular target: Monomeric HER2 binding IgA2m(2) produced in N. benthamiana ΔXT/FT (human); assay: as above
[6] = molecular target: Monomeric HER2 binding IgA2m(2) produced in HEK293F cells (human); assay: as above
[7] = molecular target: Monomeric HER2 binding IgA1 produced in HEK293F cells (human); assay: as above
[8] = molecular target: Monomeric HER2 binding IgA1 produced in N. benthamiana ΔXT/FT (human); assay: as above
[9] = molecular target: HER2 binding monomeric IgA2m(2) produced in N. benthamiana ΔXT/FT plants (human); assay: SPR; Biacore T200; IgA variants immobilised on a Protein L sensor chip with the Fc-domain pointing toward the solution; five increasing concentrations of FcαRI injected in single-cycle kinetic experiments; 1:1 binding model; three independent kinetic runs
[10] = molecular target: HER2 binding monomeric IgA1 produced in N. benthamiana ΔXT/FT plants (human); assay: as above
[11] = molecular target: HER2 binding monomeric IgA2m(2) produced in HEK293F cells (human); assay: as above
[12] = molecular target: HER2 binding dimeric IgA1 produced in N. benthamiana ΔXT/FT plants (human) (UniProt P01591); assay: as above
[13] = molecular target: HER2 binding dimeric IgA2m(2) produced in HEK293F cells (human) (UniProt P01591); assay: as above
[14] = molecular target: HER2 binding dimeric IgA2m(2) produced in N. benthamiana ΔXT/FT plants (human) (UniProt P01591); assay: as above
[15] = molecular target: HER2 binding dimeric IgA1 produced in HEK293F cells (human) (UniProt P01591); assay: as above
[16] = molecular target: HER2 binding monomeric IgA1 produced in HEK293F cells (human); assay: as above

Substance: Recombinant soluble FcαRI (from UniProt P24071 22-227) (receptor)
- Kd [1]: 226 nM
- koff [1]: 0.049 s⁻¹
- kon [1]: 270000 M⁻¹ s⁻¹
- Kd [2]: 151 nM
- koff [2]: 0.057 s⁻¹
- kon [2]: 370000 M⁻¹ s⁻¹
- Kd [3]: 182 nM
- koff [3]: 0.049 s⁻¹
- kon [3]: 260000 M⁻¹ s⁻¹
- Kd [4]: 144 nM
- koff [4]: 0.055 s⁻¹
- kon [4]: 360000 M⁻¹ s⁻¹
- Kd [5]: 160 nM
- koff [5]: 0.055 s⁻¹
- kon [5]: 340000 M⁻¹ s⁻¹
- Kd [6]: 157 nM
- koff [6]: 0.05 s⁻¹
- kon [6]: 310000 M⁻¹ s⁻¹
- Kd [7]: 109 nM
- koff [7]: 0.05 s⁻¹
- kon [7]: 440000 M⁻¹ s⁻¹
- Kd [8]: 103 nM
- koff [8]: 0.061 s⁻¹
- kon [8]: 580000 M⁻¹ s⁻¹
- Kd [9]: 170 nM
- stoichiometry N [9]: 1
- Kd [10]: 110 nM
- stoichiometry N [10]: 1
- Kd [11]: 170 nM
- stoichiometry N [11]: 1
- stoichiometry N [12]: 1
- stoichiometry N [13]: 1
- stoichiometry N [14]: 1
- stoichiometry N [15]: 1
- Kd [16]: 110 nM
- stoichiometry N [16]: 1
